This is an account of results in article PMC5209314, “Purification and characterization of a novel glutamate dehydrogenase from Geotrichum candidum with higher alcohol and amino acid activity” (AMB Express, 2017).

Substrate in data set [1]: O=C(O)CCC(=O)C(=O)O
Kind of data set: purified protein. The conditions noted are these: NADPH, NH4+, pH 4.0, 30 °C, Table 2 header prints μmol/L, abstract mM. It counts as biochemical, Geotrichum candidum.

Substrate in data set [2]: N[C@@H](CCC(=O)O)C(=O)O
Description: purified protein. It counts as biochemical, Geotrichum candidum. The conditions noted are these: NADP+, pH 4.0, 30 °C, Table 2 header prints μmol/L, abstract mM, competitive with hexanol, b65 prints other Michaelis constants (61.02 and 13.43 mM, both called glutamate).

Substrate in data set [3]: NC(=O)C1=CN([C@@H]2O[C@H](COP(=O)(O)OP(=O)(O)OC[C@H]3O[C@@H](n4cnc5c(N)ncnc54)[C@H](OP(=O)(O)O)[C@@H]3O)[C@@H](O)[C@H]2O)C=CC1
Kind of data set: purified protein. It counts as biochemical, Geotrichum candidum. To be noted: pH 4.0, 30 °C, printed unit doubtful: tested 0.01-0.1 mmol/L and same column is mM in abstract, so probably mmol/L, varied: cofactor.

Substrate in data set [4]: N
Kind of data set: purified protein. To be noted: pH 4.0, 30 °C, printed unit doubtful: tested 5-50 mmol/L and same column is mM in abstract, so probably mmol/L.

Substrate in data set [5]: CC(C)CCO
Description: GC of substrate decrease, Lineweaver-Burk. It counts as biochemical, Geotrichum candidum. To be noted: NADP+, pH 4.0, 30 °C, Table 2 header prints mol/L, abstract mM.

Substrate in data set [6]: CCCCCCO
Description: GC of substrate decrease, Lineweaver-Burk. It counts as biochemical, Geotrichum candidum. The conditions noted are these: NADP+, pH 4.0, 30 °C, Table 2 header prints mol/L, abstract mM.

B1: glutamate dehydrogenase (GDH) from Geotrichum candidum S12 (Geotrichum candidum) (protein)
chain: MVQPSEPEFEQAYNELLSTLKDSTLFEKRPELEKVIPIVSIPERVLQFRVVWEDDNGVAQVNRGYRVQFNSALGPYKGGLRFHPTVNLSILKFLGYEQIFKNALTGLNMGGGKGGSDFDPKGKSDSEIRRFCVAFMGELHRHIGADTDVPAGDINVGGREIGYLFGAYKKFKNTWEGVLTGKGLTWGGSLIRPEATGYGVVYYVEKMIEYATQGKESFAGKTVAISGSGNVAQYAALKVIELGGTVVSLSDSKGAFIATTAEGFTPAEIAEIADIKVSHAQLSTLADKFASKFKYLEGARPWVHVKADVALPCATQNEVSGEEAEALVANGTKFIAEGSNMGSTQEAIDVFEAERLKNPQGIWYAPGKAANAGGVAVSGLEMAQNSQRGNWSTEEVDQRLKEIMVNIFNTSVSTAVEYSSEKGDSLPSLVKGANIAGFVKVADAMHDHGDFW
notes: identified by PMF similarity to Yaliof17820p (Yarrowia homologue)
With B1, the Km in data set [1] worked out at 4.01 mM; in data set [2], 41.74 mM; in data set [3] it was 0.00013 mM; in data set [4], 0.00535 mM; in data set [5], 19.37 mM; in data set [6], 20.37 mM.
